{"source": "paper PMC6082395", "about": "(Journal of molecular biology, 2018)", "binders": {"B1": {"name": "human WT c-Myb TAD (residues 275–327) (domain or fragment, UniProt P10242 275-327, looked up)", "chain": "PAAAAIQRHYNDEDPEKEKRIKELELLLMSTENELKGQQVLPTQNHTCSYPGW"}, "B2": {"name": "c-Myb TAD K293H (domain or fragment, human, UniProt P10242 275-327, looked up)", "chain": "B1 chain with K19H"}, "B3": {"name": "c-Myb TAD N307G (domain or fragment, human, UniProt P10242 275-327, looked up)", "chain": "B1 chain with N33G"}, "B4": {"name": "c-Myb TAD S304P (domain or fragment, human, UniProt P10242 275-327, looked up)", "chain": "B1 chain with S30P"}, "B5": {"name": "c-Myb TAD L300G (domain or fragment, human, UniProt P10242 275-327, looked up)", "chain": "B1 chain with L26G"}, "B6": {"name": "c-Myb TAD N307A (domain or fragment, human, UniProt P10242 275-327, looked up)", "chain": "B1 chain with N33A"}, "B7": {"name": "c-Myb TAD N307V (domain or fragment, human, UniProt P10242 275-327, looked up)", "chain": "B1 chain with N33V"}, "B8": {"name": "c-Myb TAD P289A (domain or fragment, human, UniProt P10242 275-327, looked up)", "chain": "B1 chain with P15A"}, "B9": {"name": "c-Myb TAD S304V (domain or fragment, human, UniProt P10242 275-327, looked up)", "chain": "B1 chain with S30V"}, "B10": {"name": "c-Myb TAD L300V (domain or fragment, human, UniProt P10242 275-327, looked up)", "chain": "B1 chain with L26V"}, "B11": {"name": "c-Myb TAD P289A/P316A (domain or fragment, human, UniProt P10242 275-327, looked up)", "chain": "B1 chain with P15A, P42A"}, "B12": {"name": "c-Myb TAD K296H (domain or fragment, human, UniProt P10242 275-327, looked up)", "chain": "B1 chain with K22H"}, "B13": {"name": "c-Myb TAD G311A (domain or fragment, human, UniProt P10242 275-327, looked up)", "chain": "B1 chain with G37A"}, "B14": {"name": "c-Myb TAD L300A (domain or fragment, human, UniProt P10242 275-327, looked up)", "chain": "B1 chain with L26A"}, "B15": {"name": "c-Myb TAD E292D (domain or fragment, human, UniProt P10242 275-327, looked up)", "chain": "B1 chain with E18D"}, "B16": {"name": "c-Myb TAD S304G (domain or fragment, human, UniProt P10242 275-327, looked up)", "chain": "B1 chain with S30G"}, "B17": {"name": "c-Myb TAD L300P (domain or fragment, human, UniProt P10242 275-327, looked up)", "chain": "B1 chain with L26P"}, "B18": {"name": "c-Myb TAD S304A (domain or fragment, human, UniProt P10242 275-327, looked up)", "chain": "B1 chain with S30A"}, "B19": {"name": "c-Myb TAD N307P (domain or fragment, human, UniProt P10242 275-327, looked up)", "chain": "B1 chain with N33P"}}, "molecular_target": "KIX domain of human CBP (residues 586–672) (human, UniProt Q92793 586-672)", "sequence (Q92793 586-672)": "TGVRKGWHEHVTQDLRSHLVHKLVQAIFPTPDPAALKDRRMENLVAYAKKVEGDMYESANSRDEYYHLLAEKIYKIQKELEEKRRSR", "assay": "ITC", "note": "Changes are numbered by the printed parent chain. Names may count otherwise.", "data": [{"binder": "B1", "values": [{"measurement": "Kd", "value": "500 ± 30", "unit": "nM"}, {"measurement": "dH", "value": "-10.5 ± 0.4", "unit": "kcal/mol"}]}, {"binder": "B2", "values": [{"measurement": "Kd", "value": "780 ± 60", "unit": "nM"}, {"measurement": "dH", "value": "-11.1 ± 2.1", "unit": "kcal/mol"}]}, {"binder": "B3", "values": [{"measurement": "Kd", "value": "610 ± 40", "unit": "nM"}, {"measurement": "dH", "value": "-9.26 ± 0.23", "unit": "kcal/mol"}]}, {"binder": "B4", "values": [{"measurement": "Kd", "value": "3450 ± 500", "unit": "nM"}, {"measurement": "dH", "value": "-7.35 ± 0.97", "unit": "kcal/mol"}]}, {"binder": "B5", "values": [{"measurement": "Kd", "value": "2240 ± 20", "unit": "nM"}, {"measurement": "dH", "value": "-11.33 ± 0.04", "unit": "kcal/mol"}]}, {"binder": "B6", "values": [{"measurement": "Kd", "value": "410 ± 70", "unit": "nM"}, {"measurement": "dH", "value": "-8.29 ± 0.6", "unit": "kcal/mol"}]}, {"binder": "B7", "values": [{"measurement": "Kd", "value": 390, "unit": "nM"}, {"measurement": "dH", "value": "-8.44 ± 0.04", "unit": "kcal/mol"}]}, {"binder": "B8", "values": [{"measurement": "Kd", "value": "620 ± 20", "unit": "nM"}, {"measurement": "dH", "value": "-10.2 ± 0.27", "unit": "kcal/mol"}]}, {"binder": "B9", "values": [{"measurement": "Kd", "value": "1490 ± 290", "unit": "nM"}, {"measurement": "dH", "value": "-8.39 ± 0.93", "unit": "kcal/mol"}]}, {"binder": "B10", "values": [{"measurement": "Kd", "value": "820 ± 50", "unit": "nM"}, {"measurement": "dH", "value": "-11.38 ± 0.11", "unit": "kcal/mol"}]}, {"binder": "B11", "values": [{"measurement": "Kd", "value": "530 ± 20", "unit": "nM"}, {"measurement": "dH", "value": "-9.81 ± 0.1", "unit": "kcal/mol"}]}, {"binder": "B12", "values": [{"measurement": "Kd", "value": "870 ± 50", "unit": "nM"}, {"measurement": "dH", "value": "-13.8 ± 0.48", "unit": "kcal/mol"}]}, {"binder": "B13", "values": [{"measurement": "Kd", "value": "460 ± 30", "unit": "nM"}, {"measurement": "dH", "value": "-10.1 ± 0.26", "unit": "kcal/mol"}]}, {"binder": "B14", "values": [{"measurement": "Kd", "value": "670 ± 80", "unit": "nM"}, {"measurement": "dH", "value": "-9.26 ± 0.39", "unit": "kcal/mol"}]}, {"binder": "B15", "values": [{"measurement": "Kd", "value": "630 ± 20", "unit": "nM"}, {"measurement": "dH", "value": "-11.22 ± 0.05", "unit": "kcal/mol"}]}, {"binder": "B16", "values": [{"measurement": "Kd", "value": "710 ± 130", "unit": "nM"}, {"measurement": "dH", "value": "-13.3 ± 2.69", "unit": "kcal/mol"}]}, {"binder": "B17", "values": [{"measurement": "Kd", "value": "290000 ± 101000", "unit": "nM"}, {"measurement": "dH", "value": "-1.34 ± 0.29", "unit": "kcal/mol"}]}, {"binder": "B18", "values": [{"measurement": "Kd", "value": "380 ± 40", "unit": "nM"}, {"measurement": "dH", "value": "-6.94 ± 0.51", "unit": "kcal/mol"}]}, {"binder": "B19", "values": [{"measurement": "Kd", "value": "950 ± 70", "unit": "nM"}, {"measurement": "dH", "value": "-8.97 ± 0.32", "unit": "kcal/mol"}]}]}
